Results: PMC9363421

Key:
GFAT1 [1] = biological target: GFAT1 (UniProt Q06210); assay: His-TAB1 pull-down after JNK reaction; settings: reference: His-TAB1 WT treated with JNK; sites S438
GFAT1 [2] = biological target: GFAT1 (UniProt Q06210); assay: GST pull-down after in vitro kinase reaction; settings: sites S438
GFAT1 [3] = biological target: GFAT1 (UniProt Q06210); assay: co-immunoprecipitation of TAB1 mutants; settings: reference: wild type; sites S438

Substance: TAB1 (from UniProt Q15750) His-TAB1-S438A treated with JNK
- binding against the reference (GFAT1 [1]): weaker

Substance: TAB1 (from UniProt Q15750) His-TAB1-S438A treated with p38α
- binding against the reference (GFAT1 [2]; reference: His-TAB1 WT treated with p38α): weaker

Substance: TAB1 (from UniProt Q15750) S438A
- binding against the reference (GFAT1 [3]): weaker

Substance: TAB1 (from UniProt Q15750) His-TAB1-S438A treated with JNK1
- binding against the reference (GFAT1 [2]; reference: His-TAB1 WT treated with JNK1): weaker
